Experiment: protease stability score; higher = more stable; yeast display proteolysis, trypsin and chymotrypsin;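 further: log10 excess protease needed over predicted unfolded state with 0 meaning unfolded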
Work on “EEELEKEAEKFFRIVHDGNEDDLKRYMDPNVDITVGDKSLTGHSHYARRVKQKKRELRVDIKIESIKADGNRVSATVVWVNNHNGEPQSDAAEVEFNFHNGRVTHIRNDDDK” yielded a protease stability score of 0.151.
In the case of “DQQTDAKEHAETVNKVLTHNDPNKLRELFDEDARMRVGDKEYRGQEQVDHVLKEIADRVDHVDVKLESVSLENGSVKVVIRAVFDDNGRKNDVHIDLVAVIDNGDLYIKEIRFE”, the protease stability score is reported as 0.301.
“DEEQLKMARELFEIMHTGDPDQLKEQFPPDAHFNIGDKRVSGMTEFARQVENEHKEQRRSIDIKSMDVNSPHVTIQARFEVEHNGQPHTSTATIQFQFQNGRFLNMRVQSHQ” showed a protease stability score of -0.106.
“EEELRNVYRDLLEAEERGNPDDIKRLVDPNARLQIGDKEIHGREHLMRFVEEVRKEIRFEIDRLDVTATGETAKVDARVKQNHNGQPESWHYTVQVKYHNGRIVNLRMRRTS” gave a protease stability score of 1.31.
For “DEEDVKRAERFQKHYQQGNTEEMRKLLDKNARIEVGDKTLHGRDDAKDKLRKNLDNWRFSMDSVDNKLKNGQVRIDIKYRMVINGRPFSITYKLNVKFENGKVQFMEDRISEDDQRHLEK”, the protease stability score was 0.582.
“DHEIRHFAEQVVRVLNTGDEEEIEKLFDPNARITVGDKSYHGMDDYARKVKQTRDEMRFTIDVKDLKVSGDSVSMRAHVVHDHNGTPQKDTEQREFRVQGDRVKHMDVKSDG” showed a protease stability score of -0.395.
In the case of “DDDAQRRLEDQLKQIEEGNPEQIRNQVDPNATLRYGDKTIQGREEIVKWWKRIRDESRIQFHLKSMEVSGDQVRVVFNLVVKHNGKPSHSQVVVTLRFHNGKVTEVSMQHTS”, the protease stability score is reported as 1.71.
“DDTKTARELVENLNEAFEKGDEDQFVSNLPPDARIEVGDRQVHGREQLKKWFDEMVERFDHMRIEVRHVEHHNGDVRVSARMQWQHNGREQSDSVEVVFVNDNGRLKMHVLRYG” showed a protease stability score of 1.5.
“DDQLSDQLDKARKQIEEGNFEQVREYVDPNVSVHVGDKSVHGREKYTHEILRKHQELRYKVEVTRVHVENGRLDVKAQETVNHNGRPESSRYVLDLNMHNGRLKHMTKSSDK” gave a protease stability score of -0.321.
In the case of “DEEKKRRVAQKIAKLVQTGDPRDVETMMRDDVRANYGDKEYHGRENVSTFADRQVKKVDHRHIESVKNSGEQLVVDMRFVINGHNVRFRISFEFHNGKIKQANFDPKAIEHQDS”, the protease stability score is reported as -0.176.
Sequence “DSEERKTVARELNKVLKENDEEKFKRLADENVKLHYGDKEFHGRERAEQVLREWKKRIDHLEVNHVNNTGDRIVIHATVNVNGVNVHLEFNARLDNGHVTSVRLQYRDEEDRKRLES” has a protease stability score of 0.814.
Sequence “DEDARRRVHEFFEAIENNDREKLKELADPNVQANYGDKQVRGREQLAEWVDKLHKELRVHFRLKSLDNRGDKIEIRMRVILDINGRPQTQDVTMEMRFHNGRIKHVQVHVDERQLKQKKK” has a protease stability score of 0.942.
“EKSIVEFFKKWVTAQRDGDPRQHARYIDPNARLQVGDRVVNGREQAKDDQHKKRKEIKVDMRIKSISASNGTLEVNFREKVDVNGRPITREYRFRFEVRNGRITSLSNQVDKEEQKKLKK” gave a protease stability score of 0.157.
“DDENRRRAETWFRNIQDNNPELIRHMFDEDARLEVGDKEIQGREHFEEQMKRDVEEMRLDLKVKSVEVRGNDVTVKAEAQDDRNGHPRNFTFRIRIRYHNGRVKHVHMDRQG” showed a protease stability score of 0.092.
Sequence “DEKDKDVADELRKAYHTGDHNRLREMVDKDVKFQVGDQDYHGRETFMKLNHTERNEIRIEIQSIRVHVHNGRVTVKQVVVREHNGRPTRMQQVLTIDAHNGKIKKMFIKDDQ” has a protease stability score of 0.069.
Sequence “DTELTHELSHRIKDNNWEDLSKNADENVEFRVGNKEYHGKEEFQHLQENLKRQIDDVKIHSLTAQGDHLEADVVYNVNGRDLRFTFHMTVRNGKIKEMNASFRDESQVNTMLTVLN” has a protease stability score of -0.238.
“DRSQVESAMRKALHNDPREHEKMFDKDARIQIGDTTFTGQETVLRVIRQLLTKADHIQINDYEISGNKVRIDVQVEVNGRRVRVELDFTVSNGRIKHATWKARSEEELHRIKENLR” showed a protease stability score of 0.239.
In the case of “DEENLQKIAHKVVRALHDGDPHQMHDLFDKDARISYGDKSVHGRNEISKAAHEREERVDDIDFKSFSVKNGHVEVDAKYDHNGQRREVIVQVEMHNGRIKSARFTKK”, the protease stability score is reported as 0.2.
“DEEEKKRQQEEIERLLHTGDHDRFSELMDKDVKMDVGEDRVHGRENVAKHLADEMKRIDHVNVQSVDVKGEKFDFSAQFRVNGQTVQRVIIMVQKNGKWKELSITVTDDDQLKRVES” gave a protease stability score of 0.092.
In the case of “DERVADQFVRALRTNDEEQLVRLMDEDAKMRVGEKEIHGRESVQTYLRRFAQQADHVDIHHVHIQGDKVSIDAVVEFNGKRVRFSMQFTVEGEKVKDVTIEARDEDDKRKLDEIFR”, the protease stability score is reported as 1.79.
For “DEENTKVAHEWLRNLERNDPKKLNELADPNAHFNVGDKQVQGMDEFERRIEDKKKEMRMKIDDYKARVHNGHVRVDVIVVIDHNGKPDKKRNVQFFDMENGRISRINQQDTG”, the protease stability score was -0.164.
“DKEKEAKKAIDKMITAIQHNDEDRAREMADPNVRIKYGDKQYHGRETMEDWIRTLRNSYDHLDIKLTDMKTDGDKIHIIIQYEADHNGQRTRDRVDLTMRRDNGRVKLVSAKEQ” showed a protease stability score of 0.232.
Sequence “DHEANQIAREFVKAIRTNNPTRASQNMDPNVRVTVGDHVFHGREEVKTWIHRLNKEARIDIHINTIESQGDNAKVVFKYRVEVDGRPDSRNVIVDVHAHNGKMKEVVYRVDEDEQHELKK” has a protease stability score of 0.368.
With “DERLREQLNRFHKLLEKNNPEKLVEQLDPNAEFEVGDKQYHGREQIEDWQRRLAKRQRFSRDFKSIDASNGNVRATFRVVITHDGKPDDYLAVMHFQVKNGKFKRFVIKRNQ” the protease stability score was 0.291.
For “DEQEDRDRLEEALHAVMTGDEDRLMELADPNVEIQIGDKTFHGNTEARKVVETLKRKVDHLRVEEITKRPGSAFVIAVMEVNGKQVTVTVRIQAENGRIVHVSMNPKQLQDLKS”, the protease stability score was 0.776.
“DEQTAAKKANELAEAISTGDPERVMELADKDVKVVVGDKTYHGKEDLREMAKRFRDRVDHAQIDSVTNDGEHAKIHMRVEVNGHTVEIDLVIEARNGHAKHLQVDPDDQRKLEG” showed a protease stability score of 0.919.
With “DEQTKAQQFAEDVVKANQQNDKDRLTEQFDKNARVQVGEKEVHGREHIMEELIKLMTEADKVDVKVRHVHAQGDKVHLDIHFRMRVNGQDHDSRMTIVARNSNGTVVIESVDVK” the protease stability score was 1.19.
“DEREAASVAMRAAQAFVTGDEKTFVDNVDPNARVTVGDKHLHGREHIQDHIRKLKTRVDHHEIHDYKVHGNKATMDVRVVFDGRTRDKKIFAVAHNGRVQEMRVEDG” gave a protease stability score of -0.299.
Sequence “DEQKDAERAIEALRVMLQGDDDSVRKMVDPNATLTVGDTEYKGREEFVKYARTLRRRADHFRIDTVHVEGDTAVMQAQVNVNGKTKTIRINVRAHNGRVVHVHVDPDQLKRIES” has a protease stability score of 0.831.
“DKEASDHATRIAQTNNPQKAVDKADPDVKATYGNKVYNGKNQARDVAKQFDEHFDRVEVKSVDNDGETVRADVRARFNGKTMEFTFVIVMSNGHVKMLFIDVRNPEDQEDLDRLLT” showed a protease stability score of -0.188.
Work on “DETAISVAKTMFEAMESNDPDEVRRQADPNATFVIGDKNYHGMETYAKEVKKRNDKIDVQLQDMDITDQGEDADIKQVAVFTHDGRPKKVVIHWDISVRNGRIKFVHADQRG” yielded a protease stability score of -0.4.
In the case of “DEEAQKQFEEFLDVLETGDPKRLQDNMDEDARVVIGDKTITGREEAAKEWHKIRQEISVEIKHVHMEAQGDKLNATLDVVWNVNGRPHRFKFVIIMDFHNGRIKQIEIRMDERHLKKLRT”, the protease stability score is reported as 0.499.
“DDDAVRLFKEELKAEKNNNPDKIRELADPNARFKVGDKTVHGRESWARTVETRAREIRNDIDVKSYDNDNGRADIKMTVHQEENGRPQHNEASANITADNGRLKEVQIHSRP” gave a protease stability score of -0.356.
For “DERDADKVRQLYENEQHGDEHKVMQLVDKDVRFQYGDHEVQGREQQKKLVKERQDKARFELKSVDARDHNGRVRVDVRWVAEVNGRPHEDTIEVVVEIHNGKVKHVEFRVDPDHWTEVMQ”, the protease stability score was 0.152.
“DKKLSRQFREFWRAMEDGDPDKLRENADPNVKYVVGDKTIHGRETYVKEAQDRRREMRVELDTMSINDKGERITVEYVQVNEHNGRPKQAVYRQVILFKNGRIKEVRQTKTD” gave a protease stability score of -0.073.
“DEELRKLAEQLVTIFQTGNEHHVQELMDPNAKLQIGDTEFKGREEYVKEVKKRRDEMRFSIKKVKVDAHGDKIDIKIHMTMKHDGKPRDYVVTVHLRVQGDKIKSAHYQDTK” gave a protease stability score of 0.155.

From the NTF2 design screens of Basanta et al. (2020)
